Data as given in IntAct's records for PubMed 23348841.

B1: Nonsense-mediated mRNA decay factor SMG5 (Homo sapiens), Q9UPR3 (parent)
chain: MSQGPPTGESSEPEAKVLHTKRLYRAVVEAVHRLDLILCNKTAYQEVFKPENISLRNKLRELCVKLMFLHPVDYGRKAEELLWRKVYYEVIQLIKTNKKHIHSRSTLECAYRTHLVAGIGFYQHLLLYIQSHYQLELQCCIDWTHVTDPLIGCKKPVSASGKEMDWAQMACHRCLVYLGDLSRYQNELAGVDTELLAERFYYQALSVAPQIGMPFNQLGTLAGSKYYNVEAMYCYLRCIQSEVSFEGAYGNLKRLYDKAAKMYHQLKKCETRKLSPGKKRCKDIKRLLVNFMYLQSLLQPKSSSVDSELTSLCQSVLEDFNLCLFYLPSSPNLSLASEDEEEYESGYAFLPDLLIFQMVIICLMCVHSLERAGSKQYSAAIAFTLALFSHLVNHVNIRLQAELEEGENPVPAFQSDGTDEPESKEPVEKEEEPDPEPPPVTPQVGEGRKSRKFSRLSCLRRRRHPPKVGDDSDLSEGFESDSSHDSARASEGSDSGSDKSLEGGGTAFDAETDSEMNSQESRSDLEDMEEEEGTRSPTLEPPRGRSEAPDSLNGPLGPSEASIASNLQAMSTQMFQTKRCFRLAPTFSNLLLQPTTNPHTSASHRPCVNGDVDKPSEPASEEGSESEGSESSGRSCRNERSIQEKLQVLMAEGLLPAVKVFLDWLRTNPDLIIVCAQSSQSLWNRLSVLLNLLPAAGELQESGLALCPEVQDLLEGCELPDLPSSLLLPEDMALRNLPPLRAAHRRFNFDTDRPLLSTLEESVVRICCIRSFGHFIARLQGSILQFNPEVGIFVSIAQSEQESLLQQAQAQFRMAQEEARRNRLMRDMAQLRLQLEVSQLEGSLQQPKAQSAMSPYLVPDTQALCHHLPVIRQLATSGRFIVIIPRTVIDGLDLLKKEHPGARDGIRYLEAEFKKGNRYIRCQKEVGKSFERHKLKRQDADAWTLYKILDSCKQLTLAQGAGEEDPSGMVTIITGLPLDNPSVLSGPMQAALQAAAHASVDIKNVLDFYKQWKEIG
partner: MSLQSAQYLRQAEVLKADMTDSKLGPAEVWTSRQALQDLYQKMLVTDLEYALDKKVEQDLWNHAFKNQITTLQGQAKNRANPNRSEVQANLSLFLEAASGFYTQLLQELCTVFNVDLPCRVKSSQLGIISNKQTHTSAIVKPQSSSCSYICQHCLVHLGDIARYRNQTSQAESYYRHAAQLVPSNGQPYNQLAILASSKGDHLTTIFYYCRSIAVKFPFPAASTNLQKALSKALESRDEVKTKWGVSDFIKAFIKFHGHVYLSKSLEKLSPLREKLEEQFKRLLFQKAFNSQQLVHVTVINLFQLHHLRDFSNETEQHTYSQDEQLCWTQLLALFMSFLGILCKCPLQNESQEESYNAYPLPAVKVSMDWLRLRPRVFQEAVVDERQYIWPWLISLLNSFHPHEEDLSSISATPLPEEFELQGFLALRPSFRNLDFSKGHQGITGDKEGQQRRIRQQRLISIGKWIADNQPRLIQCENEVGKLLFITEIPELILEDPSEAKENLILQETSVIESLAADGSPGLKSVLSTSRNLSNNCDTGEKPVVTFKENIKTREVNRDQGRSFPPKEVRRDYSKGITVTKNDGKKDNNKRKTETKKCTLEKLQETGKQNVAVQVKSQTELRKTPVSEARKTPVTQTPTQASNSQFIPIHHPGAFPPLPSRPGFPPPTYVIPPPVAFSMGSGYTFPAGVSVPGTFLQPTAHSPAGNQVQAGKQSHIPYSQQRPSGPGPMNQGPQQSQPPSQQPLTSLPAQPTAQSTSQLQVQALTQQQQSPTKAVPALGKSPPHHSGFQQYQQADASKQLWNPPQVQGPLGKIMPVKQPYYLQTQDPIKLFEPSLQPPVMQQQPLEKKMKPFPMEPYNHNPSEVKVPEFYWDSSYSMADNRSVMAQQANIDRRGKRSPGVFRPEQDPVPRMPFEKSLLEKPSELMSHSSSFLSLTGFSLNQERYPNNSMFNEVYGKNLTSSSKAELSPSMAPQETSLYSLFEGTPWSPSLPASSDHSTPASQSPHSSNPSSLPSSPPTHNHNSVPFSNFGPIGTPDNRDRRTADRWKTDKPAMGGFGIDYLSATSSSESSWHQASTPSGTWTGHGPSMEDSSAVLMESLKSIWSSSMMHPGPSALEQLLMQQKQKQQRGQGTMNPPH
B2: Nonsense-mediated mRNA decay factor SMG7 (Homo sapiens), Q92540 (parent)
chain: B1 partner
partner: B1 chain

Variants of: B1
Conditions: with smg7_human SMG7, Q92540

| effect of a mutation on the interaction | Variant |
| --- | --- |
| disrupting interaction strength | G120E |

Variants of: B2
Conditions: with smg5_human SMG5, Q9UPR3

| effect of a mutation on the interaction | Variant |
| --- | --- |
| disrupting interaction strength | G100E |
| disrupting interaction strength | T103E |
